{
  "source": "patent US20230391856A1",
  "about": "(ICAHN SCHOOL OF MEDICINE AT MOUNT SINAI, published 2023)",
  "binders": {"B1": {"name": "8A1 (antibody, V domains shown)", "VH": "EVQLQESGGGLVQPGGSLKLSCAASGFTFSSYTMSWVRQTPEKRLEWVAYISNGGGSISYPDTVKGRFTISRDNAKNTLYLHMSSLKSEDTAMYHCAREGLRPGDRDRYYAMDYWGQGTSVTVSS", "VL": "DIVITQSPALMAAFPGDRVTITCSVSSSVSSSNLHWYRQKSETSPKPWIYGTSTLASGVPVRFSGSGSGTSYSLTISSMEAEDAATYYCQQWSSYPLTFGAGTKLELKR"}, "B2": {"name": "SARS2-1G9_f3 (antibody, V domains shown)", "VH": "QVQLVQSGAEVKKPGASVKVSCKASGYTFTSYDIIWVRQATGQGLEWMGWMSPNSGNTGYAQKFQGRVTMTRNTSISTAYMELSSLRSEDTAVYYCARFGYGSGALDYYYYGLDVWGQGTTVTVSS", "VL": "not shown", "notes": "also called antibody number 5"}, "B3": {"name": "SARS2-16C12_f3 (antibody, V domains shown)", "VH": "B2 VH", "VL": "not shown", "notes": "also called antibody number 16; family B"}, "B4": {"name": "SARS2-17A8_f3 (antibody, V domains shown)", "VH": "B2 VH with R72K", "VL": "not shown", "notes": "also called antibody number 17"}, "B5": {"name": "SARS2-1E2_f3 (antibody, V domains shown)", "VH": "B2 VH with I35T", "VL": "EIVLTQSPGTLSLSPGERATLSCRASQSVRSSHFAWYQQKPGQAPRLLIYGASSRATGIPDRFSGSGSGTDFTLTISRLEPEDFAVCYCQQYGSSPITFGQGTRLEIK", "notes": "also called antibody number 4"}, "B6": {"name": "11G2_f3 (antibody, V domains shown)", "VH": "B2 VH with I35T, T69S", "VL": "B5 VL with S31N, F34L, C87Y, Y92F", "notes": "also called SARS2-11G2_S; antibody number 13"}, "B7": {"name": "SARS2-16C5_f3 (antibody, V domains shown)", "VH": "B2 VH with S77G, Y95F", "VL": "B5 VL with F34L, C87Y, G93N, S94N", "notes": "also called antibody number 15; family B"}, "B8": {"name": "SARS2-1D10_f3 (antibody, V domains shown)", "VH": "B2 VH with T41S, S77N", "VL": "not shown", "notes": "also called antibody number 3"}, "B9": {"name": "SARS2-7C10_f3 (antibody, V domains shown)", "VH": "B2 VH with I35T, S84R", "VL": "B5 VL with F34L, Y37S, C87Y, Y92F", "notes": "also called antibody number 8"}, "B10": {"name": "SARS2-18E7_f3 (antibody, V domains shown)", "VH": "B2 VH with K19T, K63R", "VL": "not shown", "notes": "also called antibody number 19"}, "B11": {"name": "SARS2-5H12_f3 (antibody, V domains shown)", "VH": "B2 VH with A16T, A24T, T30P, N54K, S55N, Y60F, K63R, D107G", "VL": "B5 VL with F34L, Q38R, S66R, C87Y, G93N, S94F", "notes": "also called antibody number 7"}, "B12": {"name": "SARS2-8H4_f3 (antibody, V domains shown)", "VH": "B2 VH with I35T", "VL": "B5 VL with F34L, C87Y, Y92F", "notes": "also called antibody number 9"}, "B13": {"name": "SARS2-17F2_f3 (antibody, V domains shown)", "VH": "B2 VH with K13R, I35T, N54D, K63R", "VL": "B5 VL with F34L, C87Y, G93N", "notes": "also called antibody number 18"}, "B14": {"name": "SARS2-1D5_f3 (antibody, V domains shown)", "VH": "B2 VH with I35T, S84N", "VL": "B5 VL with E17D, F34L, T73S, C87Y, Y92F", "notes": "also called antibody number 2"}, "B15": {"name": "SARS2-9C6_f3 (antibody, V domains shown)", "VH": "B2 VH with I35T, N54K", "VL": "B5 VL with F34L, Q38R, S66R, C87Y, G93N", "notes": "also called antibody number 10"}, "B16": {"name": "SARS2-5D7_f3 (antibody, V domains shown)", "VH": "B2 VH with A16T, A24T, N54K, S55N, K63R", "VL": "B5 VL with F34L, Q38R, S66R, C87Y, G93N, S94I", "notes": "also called antibody number 6"}, "B17": {"name": "SARS2-1C12_f3 (antibody, V domains shown)", "VH": "B2 VH with I35T, A61T", "VL": "B5 VL with F34L, C87Y, G93N, S94N", "notes": "also called antibody number 1"}, "B18": {"name": "SARS2-10D6_f3 (antibody, V domains shown)", "VH": "EVQLVETGGGLIQPGGSLRLSCAASGITVSSNYMNWVRQAPGKGLEWVSVIYSGGSTYYADSVKGRFTISRDNSKNTLYLQMNSLRAEDTAVYYCARDLELAGAFDIWGQGTMVTVSL", "VL": "DIQLTQSPSFLSASVGDRVTITCRASQGISSYLAWYQQKPGKAPKVLIYAASTLQSGVPSRFSGSGSGTEFTLTISSLQPEDFATYYCQQLNSYPPSTFGQGTKLEIK", "notes": "also called antibody number 11; family A"}, "B19": {"name": "SARS2-11D5_f3 (antibody, V domains shown)", "VH": "B18 VH with N35S, E100A, L101V", "VL": "B18 VL", "notes": "also called antibody number 12"}, "B20": {"name": "SARS2-19C4_f3 (antibody, V domains shown)", "VH": "B18 VH with Y58F, L101V, A104G", "VL": "B18 VL with E70K, Y94F", "notes": "also called antibody number 20; family A"}},
  "note": "Changes are numbered by the printed parent chain.",
  "data": [
    {"target": "SARS-CoV-2 spike protein (full length, wild type) (SARS-CoV-2, UniProt P0DTC2 14-1273)", "assay": "cell-based or functional assay", "units": {"EC50 (pM)": "pM"}, "values": [
      {"binder": "B1", "EC50 (pM)": 96}
    ]},
    {"target": "T1, SARS-CoV-2 spike protein (full length, wild type) (SARS-CoV-2, UniProt P0DTC2 14-1273)", "assay": "cell-based or functional assay", "units": {"EC50 (pM)": "pM"}, "values": [
      {"binder": "B2", "EC50 (pM)": 145},
      {"binder": "B3", "EC50 (pM)": 59},
      {"binder": "B4", "EC50 (pM)": 59},
      {"binder": "B5", "EC50 (pM)": 218},
      {"binder": "B6", "EC50 (pM)": 74},
      {"binder": "B7", "EC50 (pM)": 107},
      {"binder": "B8", "EC50 (pM)": 47},
      {"binder": "B9", "EC50 (pM)": 152},
      {"binder": "B10", "EC50 (pM)": 62},
      {"binder": "B11", "EC50 (pM)": 377},
      {"binder": "B12", "EC50 (pM)": 100},
      {"binder": "B13", "EC50 (pM)": 151},
      {"binder": "B14", "EC50 (pM)": 49},
      {"binder": "B15", "EC50 (pM)": 105},
      {"binder": "B16", "EC50 (pM)": 284},
      {"binder": "B17", "EC50 (pM)": 75},
      {"binder": "B18", "EC50 (pM)": 1020},
      {"binder": "B19", "EC50 (pM)": 440},
      {"binder": "B20", "EC50 (pM)": 492}
    ]},
    {"target": "T2, SARS-CoV-2 spike receptor binding domain (RBD) (SARS-CoV-2, UniProt P0DTC2 319-541)", "T2 construct": "also called SARS-CoV RBD", "assay": "RBD/ACE2 competition; RBD binding to ACE2 on HEK-293 cells", "units": {"ACE2 Inhibition (%)": "%"}, "values": [
      {"binder": "B2", "ACE2 Inhibition (%)": 96},
      {"binder": "B3", "ACE2 Inhibition (%)": 87},
      {"binder": "B4", "ACE2 Inhibition (%)": 98},
      {"binder": "B5", "ACE2 Inhibition (%)": 86},
      {"binder": "B6", "ACE2 Inhibition (%)": 90},
      {"binder": "B7", "ACE2 Inhibition (%)": 94},
      {"binder": "B8", "ACE2 Inhibition (%)": 95},
      {"binder": "B9", "ACE2 Inhibition (%)": 85},
      {"binder": "B10", "ACE2 Inhibition (%)": 82},
      {"binder": "B11", "ACE2 Inhibition (%)": 100},
      {"binder": "B12", "ACE2 Inhibition (%)": 93},
      {"binder": "B13", "ACE2 Inhibition (%)": 65},
      {"binder": "B14", "ACE2 Inhibition (%)": 94},
      {"binder": "B15", "ACE2 Inhibition (%)": 85},
      {"binder": "B16", "ACE2 Inhibition (%)": 97},
      {"binder": "B17", "ACE2 Inhibition (%)": 88},
      {"binder": "B18", "ACE2 Inhibition (%)": 81},
      {"binder": "B19", "ACE2 Inhibition (%)": 66},
      {"binder": "B20", "ACE2 Inhibition (%)": 89}
    ]},
    {"target": "SARS-CoV-2 spike receptor binding domain (RBD) (SARS-CoV-2, UniProt P0DTC2 319-541)", "assay": "RBD/ACE2 competition; RBD binding to ACE2 on HEK-293 cells", "units": {"ACE2 Inhibition (%)": "%"}, "values": [
      {"binder": "B1", "ACE2 Inhibition (%)": 95}
    ]},
    {"target": "T2, SARS-CoV-2 spike receptor binding …", "assay": "RBD/ACE2 competition; RBD binding to ACE2 on HEK-293 cells", "remark": "another data set of the same source", "units": {"ACE2 binding [% inhibition]": "%"}, "values": [
      {"binder": "B2", "ACE2 binding [% inhibition]": 96},
      {"binder": "B3", "ACE2 binding [% inhibition]": 87},
      {"binder": "B4", "ACE2 binding [% inhibition]": 98},
      {"binder": "B5", "ACE2 binding [% inhibition]": 86},
      {"binder": "B6", "ACE2 binding [% inhibition]": 90},
      {"binder": "B7", "ACE2 binding [% inhibition]": 94},
      {"binder": "B8", "ACE2 binding [% inhibition]": 95},
      {"binder": "B9", "ACE2 binding [% inhibition]": 85},
      {"binder": "B10", "ACE2 binding [% inhibition]": 82},
      {"binder": "B11", "ACE2 binding [% inhibition]": 100},
      {"binder": "B12", "ACE2 binding [% inhibition]": 93},
      {"binder": "B13", "ACE2 binding [% inhibition]": 65},
      {"binder": "B14", "ACE2 binding [% inhibition]": 94},
      {"binder": "B15", "ACE2 binding [% inhibition]": 85},
      {"binder": "B16", "ACE2 binding [% inhibition]": 97},
      {"binder": "B17", "ACE2 binding [% inhibition]": 88},
      {"binder": "B18", "ACE2 binding [% inhibition]": 81},
      {"binder": "B19", "ACE2 binding [% inhibition]": 66},
      {"binder": "B20", "ACE2 binding [% inhibition]": 89}
    ]},
    {"target": "T1, SARS-CoV-2 spike protein (full length, …)", "assay": "cell-based or functional assay", "remark": "another data set of the same source", "units": {"Inhibition: EC50 [pM]": "pM"}, "values": [
      {"binder": "B6", "Inhibition: EC50 [pM]": 109},
      {"binder": "B14", "Inhibition: EC50 [pM]": 94}
    ]}
  ]
}
